Measurements reported in article PMC11358414.

Biological target: DEP-Venus (DEP domain of Disheveled, DVL) (UniProt O14641)
Test: NanoBiT-based DEP recruitment BRET assay (BRET titration)
Conditions: HEK293A cells, FLAG-LgBiT-CAAX cotransfected, baseline-corrected …, parent: est. 0.38, read off a plot

response (value read at the right end of the fitted curve (Venus fluorescence about 27000 arb. units))	response (value read at the right end of the fitted curve (Venus fluorescence about 23000 arb. units))	Substance
0.08 net BRET		FZD7-SmBiT, wild type (from UniProt O75084) F345A; H382A
	0.1 net BRET	FZD7-SmBiT, wild type (from UniProt O75084) F345A; W386A
